# Experiments:
# cry1_mouse Cry1 = cry1_mouse Cry1 (UniProt P97784)
# cbp_mouse Crebbp = cbp_mouse Crebbp (UniProt P45481)
# Sequence of cbp_mouse Crebbp (P45481 whole entry): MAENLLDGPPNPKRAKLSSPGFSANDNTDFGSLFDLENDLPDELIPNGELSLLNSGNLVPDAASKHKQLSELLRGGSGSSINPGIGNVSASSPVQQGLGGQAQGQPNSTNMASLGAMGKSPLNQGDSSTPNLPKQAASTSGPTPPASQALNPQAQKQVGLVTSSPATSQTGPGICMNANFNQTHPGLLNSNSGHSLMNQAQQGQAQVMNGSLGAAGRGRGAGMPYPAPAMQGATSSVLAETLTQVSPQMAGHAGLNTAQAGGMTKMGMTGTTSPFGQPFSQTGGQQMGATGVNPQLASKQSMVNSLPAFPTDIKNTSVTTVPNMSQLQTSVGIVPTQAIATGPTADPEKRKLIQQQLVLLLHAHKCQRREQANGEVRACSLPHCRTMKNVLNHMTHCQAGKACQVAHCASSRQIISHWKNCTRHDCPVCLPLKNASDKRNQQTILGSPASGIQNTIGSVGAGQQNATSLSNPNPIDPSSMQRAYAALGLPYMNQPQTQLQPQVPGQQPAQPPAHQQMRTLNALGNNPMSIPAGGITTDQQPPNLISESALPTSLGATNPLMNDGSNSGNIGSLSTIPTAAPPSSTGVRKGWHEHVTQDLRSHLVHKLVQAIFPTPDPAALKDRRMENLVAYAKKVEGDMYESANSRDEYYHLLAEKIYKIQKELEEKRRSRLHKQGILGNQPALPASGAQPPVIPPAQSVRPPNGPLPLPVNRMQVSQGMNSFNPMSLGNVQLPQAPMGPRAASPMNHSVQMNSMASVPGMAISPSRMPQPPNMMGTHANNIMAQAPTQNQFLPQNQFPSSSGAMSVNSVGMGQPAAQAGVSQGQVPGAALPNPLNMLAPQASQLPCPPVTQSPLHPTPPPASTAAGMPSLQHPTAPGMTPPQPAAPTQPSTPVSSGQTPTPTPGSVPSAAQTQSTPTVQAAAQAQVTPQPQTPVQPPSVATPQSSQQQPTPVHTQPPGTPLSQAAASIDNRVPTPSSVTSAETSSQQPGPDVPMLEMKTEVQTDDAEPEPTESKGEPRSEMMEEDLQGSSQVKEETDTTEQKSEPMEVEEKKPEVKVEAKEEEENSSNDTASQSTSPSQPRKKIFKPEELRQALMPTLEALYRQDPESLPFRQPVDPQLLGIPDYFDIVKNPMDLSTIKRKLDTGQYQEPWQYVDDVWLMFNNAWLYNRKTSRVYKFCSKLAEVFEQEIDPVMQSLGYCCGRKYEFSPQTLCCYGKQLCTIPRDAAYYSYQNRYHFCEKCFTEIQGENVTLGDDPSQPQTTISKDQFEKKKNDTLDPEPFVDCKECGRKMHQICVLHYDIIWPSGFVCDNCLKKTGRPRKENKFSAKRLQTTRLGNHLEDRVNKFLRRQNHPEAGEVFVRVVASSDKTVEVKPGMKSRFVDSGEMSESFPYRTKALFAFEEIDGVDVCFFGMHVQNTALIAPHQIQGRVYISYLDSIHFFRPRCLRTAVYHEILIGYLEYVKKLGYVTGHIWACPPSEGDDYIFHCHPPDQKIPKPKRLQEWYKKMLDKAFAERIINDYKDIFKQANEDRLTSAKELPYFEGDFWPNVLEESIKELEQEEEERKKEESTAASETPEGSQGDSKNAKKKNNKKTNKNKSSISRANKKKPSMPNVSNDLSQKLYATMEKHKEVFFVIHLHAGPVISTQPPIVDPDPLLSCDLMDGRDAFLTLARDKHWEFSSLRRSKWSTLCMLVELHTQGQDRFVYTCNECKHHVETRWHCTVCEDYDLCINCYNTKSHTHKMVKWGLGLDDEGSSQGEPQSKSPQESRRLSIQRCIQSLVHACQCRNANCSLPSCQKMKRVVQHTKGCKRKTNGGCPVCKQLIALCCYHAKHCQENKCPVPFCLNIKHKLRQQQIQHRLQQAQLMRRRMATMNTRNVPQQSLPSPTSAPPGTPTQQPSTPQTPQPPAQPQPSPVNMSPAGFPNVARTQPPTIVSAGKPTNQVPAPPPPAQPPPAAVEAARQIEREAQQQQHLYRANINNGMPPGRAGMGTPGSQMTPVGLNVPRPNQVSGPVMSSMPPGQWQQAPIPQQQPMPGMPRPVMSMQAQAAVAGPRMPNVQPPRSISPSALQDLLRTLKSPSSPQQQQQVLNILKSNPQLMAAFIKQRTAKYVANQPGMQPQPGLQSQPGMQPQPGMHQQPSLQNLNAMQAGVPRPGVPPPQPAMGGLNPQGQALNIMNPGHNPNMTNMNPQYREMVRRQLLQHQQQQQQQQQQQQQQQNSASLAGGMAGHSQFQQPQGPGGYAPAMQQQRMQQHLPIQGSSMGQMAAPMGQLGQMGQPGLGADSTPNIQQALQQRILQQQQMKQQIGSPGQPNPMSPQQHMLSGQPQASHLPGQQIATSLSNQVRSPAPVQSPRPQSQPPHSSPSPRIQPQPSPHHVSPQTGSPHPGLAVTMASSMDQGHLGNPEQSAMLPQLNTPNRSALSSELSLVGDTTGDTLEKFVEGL
# Sequence of Basic helix-loop-helix ARNT-like protein 1 (Mus musculus), Q9WTL8-4 L606A;L607A (Q9WTL8 other isoform, or with tags, fused parts or gaps L606A;L607A): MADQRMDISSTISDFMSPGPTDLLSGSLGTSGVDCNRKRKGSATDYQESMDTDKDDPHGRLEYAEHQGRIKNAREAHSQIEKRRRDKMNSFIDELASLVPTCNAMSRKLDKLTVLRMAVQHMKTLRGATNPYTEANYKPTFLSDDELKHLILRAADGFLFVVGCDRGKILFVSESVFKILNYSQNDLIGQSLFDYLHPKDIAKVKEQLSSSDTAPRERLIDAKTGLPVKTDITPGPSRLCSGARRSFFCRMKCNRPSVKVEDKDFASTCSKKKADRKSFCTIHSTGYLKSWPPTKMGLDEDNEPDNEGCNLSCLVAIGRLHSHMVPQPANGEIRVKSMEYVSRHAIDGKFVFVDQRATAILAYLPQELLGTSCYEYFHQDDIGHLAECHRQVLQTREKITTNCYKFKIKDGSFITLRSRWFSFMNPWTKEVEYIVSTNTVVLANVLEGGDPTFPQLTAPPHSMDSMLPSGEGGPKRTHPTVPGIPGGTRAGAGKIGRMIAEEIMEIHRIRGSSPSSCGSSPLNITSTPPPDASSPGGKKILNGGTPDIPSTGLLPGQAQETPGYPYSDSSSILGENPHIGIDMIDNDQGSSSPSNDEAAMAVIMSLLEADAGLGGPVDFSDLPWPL
# Sequence of cry1_mouse Cry1 (P97784 whole entry): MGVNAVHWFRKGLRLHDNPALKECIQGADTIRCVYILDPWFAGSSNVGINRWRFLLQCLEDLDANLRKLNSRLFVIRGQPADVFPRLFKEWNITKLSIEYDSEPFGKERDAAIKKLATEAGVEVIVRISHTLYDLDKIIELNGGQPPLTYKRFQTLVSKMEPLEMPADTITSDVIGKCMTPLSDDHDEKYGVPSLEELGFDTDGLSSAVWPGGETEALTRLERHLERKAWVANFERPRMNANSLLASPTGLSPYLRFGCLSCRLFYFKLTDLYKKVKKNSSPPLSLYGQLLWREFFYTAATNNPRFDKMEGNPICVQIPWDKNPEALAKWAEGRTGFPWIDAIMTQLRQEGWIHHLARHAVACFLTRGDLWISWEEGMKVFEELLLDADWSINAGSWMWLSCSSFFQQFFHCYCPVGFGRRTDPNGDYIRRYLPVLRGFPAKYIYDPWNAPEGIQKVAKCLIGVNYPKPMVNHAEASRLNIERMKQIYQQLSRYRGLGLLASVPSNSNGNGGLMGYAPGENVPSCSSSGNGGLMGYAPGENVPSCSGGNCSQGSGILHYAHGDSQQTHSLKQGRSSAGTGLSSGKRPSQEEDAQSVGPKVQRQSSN
# Sequence of Basic helix-loop-helix ARNT-like protein 1 (Mus musculus), Q9WTL8-4 V602A;I603F (Q9WTL8 other isoform, or with tags, fused parts or gaps V602A;I603F): as the sequence (Q9WTL8 other isoform, or with tags, fused parts or gaps L606A;L607A) above
Substance,effect of a mutation on the interaction (cry1_mouse Cry1),effect of a mutation on the interaction (cbp_mouse Crebbp)
"Basic helix-loop-helix ARNT-like protein 1 (Mus musculus), Q9WTL8-4 V602A;I603F",disrupting interaction strength,–
"Basic helix-loop-helix ARNT-like protein 1 (Mus musculus), Q9WTL8-4 L606A;L607A",disrupting interaction strength,disrupting interaction strength
